Assay results published in article PMC9022012 (Journal of immunology (Baltimore, Md. : 1950), 2020).
Each block holds one molecule with its values, some of them ahead of it. No end group written: not given here.

Key:
[1] = biological target: HLA-DQ8 (DQA1*03:01/DQB1*03:02) (Homo sapiens, UniProt P01909+P01920, A209T/A45G/C70Q/D89A/DUP78-78/E183D/E77G/F237L/G63E/H199R/I129T/K197E/L178F/L74F/L98V/Q57E/Q76R/S185I/S97I/T217I/T49S/V73L/Y58L); assay: Competitive ELISA HLA class II peptide-binding assay, DQ8
[2] = biological target: HLA-DQ2 (DQA1*05:01/DQB1*02:01) (Homo sapiens, UniProt P01909+P01920, A45G/A70V/D89A/E106A/E77G/E98D/H199R/L107V/N214S/P84L/P87L/T103K/T109R/T172A/T60S/V78E/V99I/Y58L/Y62S/Y69I/Y79F); assay: Competitive ELISA HLA class II peptide-binding assay, DQ2
HLA-DR3 (DRB1*03:01) = HLA-DR3 (DRB1*03:01) (Homo sapiens, UniProt P01903+P01911, A100K/A102G/A103R/A169T/F55Y/I96L/K41T/L162R/M171V/P40S/Q125H/Q178H/Q39Y/R42S/S66N/T106N/T262R/W38E/Y61H); assay: Competitive ELISA HLA class II peptide-binding assay, DRB1*03:01
HLA-DR4 (DRB1*04:01) = HLA-DR4 (DRB1*04:01) (Homo sapiens, UniProt P01903+P01911, A100K/A169T/F76Y/I96L/K127E/L162R/M171V/N62H/P40V/Q125Y/R42H/S133A/S149N/S66Y/V115G/V209L/W38E); assay: Competitive ELISA HLA class II peptide-binding assay, DRB1*04:01
HLA-DRB4 (DRB4*01:01) = HLA-DRB4 (DRB4*01:01) (Homo sapiens, UniProt P01903+P13762, G164S); assay: Competitive ELISA HLA class II peptide-binding assay, DRB4*01:01
[3] = biological target: T1, proinsulin (B-chain) peptide on HLA-DQA1*05:01 / HLA-DQB1*02:01 (human); assay: proliferation
T1 peptide: ALYLVCGERG

[4] = biological target: T2, proinsulin (C-peptide) peptide on HLA-DQA1*03:01 / HLA-DQB1*03:02 (human); assay: proliferation
T2 peptide: GGPGAGSLQPL

[5] = biological target: T3, proinsulin (C-peptide) peptide on HLA-DRA*01:01 / HLA-DRB1*04:04 (human); assay: proliferation
T3 peptide: PLALEGSLQ

[6] = biological target: T4, proinsulin (C-peptide) peptide on HLA-DRA*01:01 / HLA-DRB1*03:01 (human); assay: proliferation
T4 peptide: QPLALEGSLQKR

[7] = biological target: T5, proinsulin (C-peptide) peptide on HLA-DRA*01:01 / HLA-DRB1*04:01 (human); assay: proliferation
T5 peptide: SLQPLALEGSL

[8] = biological target: T6, proinsulin (C-peptide) peptide on HLA-DRA*01:01 / HLA-DRB1*04:04 (human); assay: proliferation
T6 peptide: PLALEGSLQK

[9] = biological target: T7, proinsulin (C-peptide) peptide on HLA-DQA1*05:01 / HLA-DQB1*02:01 (human); assay: proliferation
T7 peptide: SLQPLALEGSLQ

[10] = biological target: T8, proinsulin (B-chain) peptide on HLA-DQA1*05:01 / HLA-DQB1*02:01 (human); assay: proliferation
T8 peptide: VCGERGFFY

Molecule: ADVEVYRAVTPLGPPD [DQB45-57, reference compound]
- IC50 [1]: 730 nM

Molecule: GIVEQCCTSICSLYQ [Peptide A1-15]
- binding affinity to DQ2, in words [2]: moderate to high
- binding affinity to DQ8, in words [1]: moderate to high

Molecule: B14-28: overlapping proinsulin peptide (15-mer) (ALYLVCGERGFFYTP; UniProt P01308 38-52, looked up, fragment) [Peptide B14-28]
- binding affinity to DQ2, in words [2]: did not show detectable binding affinity
- binding affinity to DQ8, in words [1]: moderate to high

Molecule: B20-C4: overlapping proinsulin peptide (15-mer) (GERGFFYTPKTRREA; UniProt P01308 44-58, looked up, fragment) [Peptide B20-C4]
- binding affinity to DRB1*03:01, in words (HLA-DR3 (DRB1*03:01)): high (below 10 (high binding))

Molecule: C13-27: overlapping proinsulin peptide (15-mer) (ELGGGPGAGSLQPLA; UniProt P01308 67-81, looked up, fragment) [Peptide C13-27]
- binding affinity to DQ8, in words [1]: did not show detectable binding affinity

Molecule: CC[C@H](C)[C@H](NC(=O)[C@@H](NC(=O)[C@H](C)NC(=O)[C@H](CCCCN)NC(=O)[C@H](CC(=O)O)NC(=O)[C@@H](NC(=O)[C@H](CCC(=O)O)NC(=O)[C@@H](NC(=O)[C@H](C)NC(=O)[C@H](CC(C)C)NC(=O)[C@H](CC(C)C)NC(=O)[C@H](CC(=O)O)NC(=O)CNC(=O)[C@H](C)N)[C@@H](C)CC)[C@@H](C)O)[C@@H](C)O)C(=O)O [E2/E7]
- IC50 (HLA-DRB4 (DRB4*01:01)): 63 nM

Molecule: B11-25: overlapping proinsulin peptide (15-mer) (LVEALYLVCGERGFF; UniProt P01308 35-49, looked up, fragment) [Peptide B11-25]
- binding affinity to DQ2, in words [2]: moderate (binding ratio below 100 (moderate binding))
- binding affinity to DQ8, in words [1]: moderate to high

Molecule: B17-C1: overlapping proinsulin peptide (15-mer) (LVCGERGFFYTPKTR; UniProt P01308 41-55, looked up, fragment) [Peptide B17-C1]
- binding affinity to DQ2, in words [2]: did not show detectable binding affinity

Second part, led by results:

- binding affinity to DQ8, in words [1]: did not show detectable binding affinity
Molecule: C16-30: overlapping proinsulin peptide (15-mer) (GGPGAGSLQPLALEG; UniProt P01308 70-84, looked up, fragment) [Peptide C16-30]

- binding affinity to DRB1*03:01, in words (HLA-DR3 (DRB1*03:01)): abrogated
- binding affinity to DRB1*04:01, in words (HLA-DR4 (DRB1*04:01)): abrogated
- binding affinity to DQ8, in words [1]: moderate to high
Molecule: C19-33: overlapping proinsulin peptide (15-mer) (GAGSLQPLALEGSLQ; UniProt P01308 73-87, looked up, fragment) [Peptide C19-33]
- binding affinity to DQ2, in words [2]: moderate (binding ratio below 100 (moderate binding))

- binding result [3]: recognises
B1: Clone 24 (TCR)
alpha TRAV8-2 TRAJ20 CDR3: CAVSEAYKLSF
beta TRBV5-8 TRBJ2-5 CDR3: CASTEGIQETQYF

- binding result [4]: recognises
B2: Clone 23 (TCR)
alpha TRAV12-3 TRAJ33 CDR3: CAMSARSNYQLIW
beta TRBV4-3 TRBJ2-3 CDR3: CASSKMGPRTDTQYF

- binding result [5]: recognises
B3: Clone 2 (TCR)
alpha TRAV13-1 TRAJ17 CDR3: CAASSKAAGNKLTF
beta TRBV6-1 TRBJ1-2 CDR3: CASSMTQGLDYGYTF

- binding result [6]: recognises
B4: Clone 11 (TCR)
alpha TRAV13-1 TRAJ47 CDR3: CAAMCKLVF
beta TRBV18 TRBJ1-2 CDR3: CASSPDRQGVEYTF

- binding result [7]: recognises
B5: Clone 13 (TCR)
alpha TRAV17 TRAJ11 CDR3: CATALISGYSTLTF
beta TRBV12-3 TRBJ2-1 CDR3: CASRQQGVGYNEQFF

- binding result [8]: recognises
B6: Clone 3 (TCR)
alpha TRAV19 TRAJ49 CDR3: CALSDRTGNQFYF
beta TRBV9 TRBJ1-2 CDR3: CASRLSGTNIPPTYGYTF

- binding result [9]: recognises
B7: Clone 22 (TCR)
alpha TRAV2 TRAJ8 CDR3: CAVEDHGTGFQKLVF
beta TRBV4-3 TRBJ2-3 CDR3: CASSQETGPTQYF

- binding result [8]: recognises
B8: Clone 1 (TCR)
alpha TRAV41 TRAJ49 CDR3: CAASNTGNQFYF
beta TRBV14 TRBJ2-7 CDR3: CASSQALAGVAEQYF

- binding result [10]: recognises
B9: Clone 19 (TCR)
alpha TRAV29 TRAJ33 CDR3: CAASPSDSNYQLIW
beta TRBV7-2 TRBJ1-1 CDR3: CASSFRRGSMNTEAFF
